Key:
[1] = target: recombinant human histone octamer (human) (UniProt P0C0S8); test: SEC; histone chaperone assay: MBP-PELP1 variant and histone octamer mixed at 1:1 or 2:1 in >1.2 M NaCl, dialysed stepwise to 0.3 M NaCl, 10 mM Hepes pH 7.5, 4°C; S200 10/300 gel filtration in the low-salt buffer; SDS-PAGE of fractions
[2] = target: T1, exogenous rixosome subcomplex (PELP1, TEX10, WDR18, and SENP3) purified by GFP-TEX10 wild type (human, UniProt Q9NXF1 1-929; Q8IZL8 1-1130; Q9BV38 1-432; Q9H4L4 1-574); test: pull-down; GFP-TEX10 rixosome subcomplexes affinity purified from HEK293FT and kept on anti-GFP Sepharose (ATP and low-salt washes); incubated with recombinant ncPRC1.4 (0.177 mg/ml) in 0.2 ml low-salt buffer (50 mM Hepes pH 7.5, 200 mM NaCl, 5 mM MgCl2, 10% glycerol), 1 hour, 4°C; Western blot; conditions: both partners purified
T1 construct: human TEX10, wild type, bait of the subcomplex; human PELP1, exogenous; human WDR18, exogenous; human SENP3, exogenous; copy numbers in this preparation are not measured; also called immobilized TEX10 rixosome subcomplexes; TEX10 subcomplexes; not shown: GFP, N-terminal, kept; copies: + + +

[3] = target: T2, MBP-SENP3^(311–574 C532S), fixed-arm MBP fusion of the SENP3 catalytic domain (human, UniProt Q9H4L4 311-574, C532S); test: crystal structure; MBP-SENP3 (311-574, C532S) with 1.5x molar excess of sPELP1 peptide; sitting drop, 0.085 to 0.1 M Hepes pH 7.5, 17 to 20% PEG8000, 4°C; 2.93 Å; conditions: both partners purified
T2 construct: human SENP3 catalytic domain with the three-helix bundle, Glu311-Val574, catalytic-dead C532S; In the PDB model MBP residues are labeled 1 to 370 and SENP3 residues 1311 to 1574; also called MBP(wt)-SENP3; pMALX(wt)-SENP3 (Glu311-Val574/C532S); source: E. coli Rosetta2 (DE3), purified (amylose resin, Superdex200 SEC); not shown: MBP (fixed-arm fusion, pMALX(wt)), N-terminal, kept

[4] = target: T3, N-terminal 6× His-tagged human SENP3 protease domain (302 to 574aa) (human, UniProt Q9H4L4 302-574); test: SEC; purified components mixed at equimolar amounts (20 to 80 μM), 4°C for at least 30 min; S200 10/300 analytical column; SDS-PAGE of fractions; conditions: both partners purified
T3 construct: E. coli codon-optimized gene (Genscript) in pET11a; source: E. coli, purified (His60 Ni resin, S200 gel filtration)
T3 sequence (Q9H4L4 302-574): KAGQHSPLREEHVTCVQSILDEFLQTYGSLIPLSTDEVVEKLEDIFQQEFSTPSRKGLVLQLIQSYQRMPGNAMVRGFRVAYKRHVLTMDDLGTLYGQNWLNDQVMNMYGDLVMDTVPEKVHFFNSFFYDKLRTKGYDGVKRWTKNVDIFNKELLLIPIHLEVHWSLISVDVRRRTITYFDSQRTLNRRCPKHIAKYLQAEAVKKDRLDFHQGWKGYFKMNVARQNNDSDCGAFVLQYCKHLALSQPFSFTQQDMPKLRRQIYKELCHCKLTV

T2 sequence (Q9H4L4 311-574 C532S): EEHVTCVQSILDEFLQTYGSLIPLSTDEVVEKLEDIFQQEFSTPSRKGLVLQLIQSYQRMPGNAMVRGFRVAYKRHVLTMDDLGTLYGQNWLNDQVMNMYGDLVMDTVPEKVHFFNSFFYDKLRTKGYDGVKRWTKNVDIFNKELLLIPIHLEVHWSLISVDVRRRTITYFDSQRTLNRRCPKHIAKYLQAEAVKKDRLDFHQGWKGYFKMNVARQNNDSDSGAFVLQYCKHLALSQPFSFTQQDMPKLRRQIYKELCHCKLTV
T1 sequence (Q9NXF1 whole entry, chain 1 of 4): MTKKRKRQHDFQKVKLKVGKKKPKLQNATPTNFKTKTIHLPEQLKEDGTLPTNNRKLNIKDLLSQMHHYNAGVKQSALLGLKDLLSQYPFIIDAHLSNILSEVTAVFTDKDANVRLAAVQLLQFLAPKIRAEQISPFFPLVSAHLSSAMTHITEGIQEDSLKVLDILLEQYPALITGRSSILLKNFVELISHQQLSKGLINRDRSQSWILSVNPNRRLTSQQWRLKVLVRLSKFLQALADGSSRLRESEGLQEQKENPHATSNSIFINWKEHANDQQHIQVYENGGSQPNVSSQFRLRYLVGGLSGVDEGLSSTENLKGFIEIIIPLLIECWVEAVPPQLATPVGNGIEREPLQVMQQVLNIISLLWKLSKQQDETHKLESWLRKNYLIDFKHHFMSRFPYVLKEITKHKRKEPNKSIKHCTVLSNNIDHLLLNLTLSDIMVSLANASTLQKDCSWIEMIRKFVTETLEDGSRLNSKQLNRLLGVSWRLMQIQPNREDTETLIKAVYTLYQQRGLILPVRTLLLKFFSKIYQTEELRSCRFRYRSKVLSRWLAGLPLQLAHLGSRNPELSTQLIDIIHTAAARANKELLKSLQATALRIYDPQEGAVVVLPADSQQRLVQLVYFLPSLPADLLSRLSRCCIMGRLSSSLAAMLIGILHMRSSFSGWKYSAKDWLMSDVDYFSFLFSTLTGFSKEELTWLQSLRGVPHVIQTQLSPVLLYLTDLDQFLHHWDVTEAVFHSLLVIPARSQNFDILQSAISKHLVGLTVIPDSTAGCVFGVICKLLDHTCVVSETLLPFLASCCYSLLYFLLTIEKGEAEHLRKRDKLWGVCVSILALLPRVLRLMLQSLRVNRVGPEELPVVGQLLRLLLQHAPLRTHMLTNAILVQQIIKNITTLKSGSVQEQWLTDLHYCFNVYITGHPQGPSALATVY
T1 sequence (Q8IZL8 whole entry, chain 2 of 4): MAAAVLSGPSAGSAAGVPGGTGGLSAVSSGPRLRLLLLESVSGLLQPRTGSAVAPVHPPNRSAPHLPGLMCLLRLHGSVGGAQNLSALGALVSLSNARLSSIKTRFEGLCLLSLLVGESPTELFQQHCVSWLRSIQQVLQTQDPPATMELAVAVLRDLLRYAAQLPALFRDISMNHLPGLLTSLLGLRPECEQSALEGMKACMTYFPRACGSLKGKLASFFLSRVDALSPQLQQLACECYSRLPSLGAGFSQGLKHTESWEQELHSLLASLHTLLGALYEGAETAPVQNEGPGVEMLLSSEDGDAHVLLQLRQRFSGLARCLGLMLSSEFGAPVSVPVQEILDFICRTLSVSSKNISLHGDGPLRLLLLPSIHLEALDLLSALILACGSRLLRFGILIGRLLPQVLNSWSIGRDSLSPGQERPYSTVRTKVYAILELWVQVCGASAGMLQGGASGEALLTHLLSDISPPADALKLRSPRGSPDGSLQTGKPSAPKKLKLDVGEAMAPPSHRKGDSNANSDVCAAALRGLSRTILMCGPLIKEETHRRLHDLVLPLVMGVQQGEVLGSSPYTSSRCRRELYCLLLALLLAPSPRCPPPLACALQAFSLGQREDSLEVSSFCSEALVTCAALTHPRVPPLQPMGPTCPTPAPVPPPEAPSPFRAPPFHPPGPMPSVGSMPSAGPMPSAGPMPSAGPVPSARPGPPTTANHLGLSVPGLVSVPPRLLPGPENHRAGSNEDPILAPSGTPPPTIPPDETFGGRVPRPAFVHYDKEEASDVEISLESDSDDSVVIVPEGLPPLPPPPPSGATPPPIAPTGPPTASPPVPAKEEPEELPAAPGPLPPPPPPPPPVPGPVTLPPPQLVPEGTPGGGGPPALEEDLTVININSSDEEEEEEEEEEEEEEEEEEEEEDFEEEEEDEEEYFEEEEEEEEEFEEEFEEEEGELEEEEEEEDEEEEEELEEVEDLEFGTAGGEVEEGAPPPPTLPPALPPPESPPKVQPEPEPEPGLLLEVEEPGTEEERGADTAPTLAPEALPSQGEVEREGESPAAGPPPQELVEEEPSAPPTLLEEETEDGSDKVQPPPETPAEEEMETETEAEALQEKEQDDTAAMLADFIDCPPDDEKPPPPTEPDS
T1 sequence (Q9BV38 whole entry, chain 3 of 4): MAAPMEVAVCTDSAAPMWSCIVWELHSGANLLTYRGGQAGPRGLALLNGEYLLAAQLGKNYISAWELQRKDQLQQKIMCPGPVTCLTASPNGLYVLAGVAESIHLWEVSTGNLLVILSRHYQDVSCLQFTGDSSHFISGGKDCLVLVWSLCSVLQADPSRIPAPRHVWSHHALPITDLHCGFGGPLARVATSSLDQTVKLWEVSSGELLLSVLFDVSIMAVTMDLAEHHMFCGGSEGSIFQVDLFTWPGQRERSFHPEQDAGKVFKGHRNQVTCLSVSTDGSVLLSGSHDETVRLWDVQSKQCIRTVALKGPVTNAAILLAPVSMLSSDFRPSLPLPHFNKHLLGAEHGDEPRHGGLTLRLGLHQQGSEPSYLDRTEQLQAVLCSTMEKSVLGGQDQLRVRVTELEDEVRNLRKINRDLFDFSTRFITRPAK
T1 sequence (Q9H4L4 whole entry, chain 4 of 4): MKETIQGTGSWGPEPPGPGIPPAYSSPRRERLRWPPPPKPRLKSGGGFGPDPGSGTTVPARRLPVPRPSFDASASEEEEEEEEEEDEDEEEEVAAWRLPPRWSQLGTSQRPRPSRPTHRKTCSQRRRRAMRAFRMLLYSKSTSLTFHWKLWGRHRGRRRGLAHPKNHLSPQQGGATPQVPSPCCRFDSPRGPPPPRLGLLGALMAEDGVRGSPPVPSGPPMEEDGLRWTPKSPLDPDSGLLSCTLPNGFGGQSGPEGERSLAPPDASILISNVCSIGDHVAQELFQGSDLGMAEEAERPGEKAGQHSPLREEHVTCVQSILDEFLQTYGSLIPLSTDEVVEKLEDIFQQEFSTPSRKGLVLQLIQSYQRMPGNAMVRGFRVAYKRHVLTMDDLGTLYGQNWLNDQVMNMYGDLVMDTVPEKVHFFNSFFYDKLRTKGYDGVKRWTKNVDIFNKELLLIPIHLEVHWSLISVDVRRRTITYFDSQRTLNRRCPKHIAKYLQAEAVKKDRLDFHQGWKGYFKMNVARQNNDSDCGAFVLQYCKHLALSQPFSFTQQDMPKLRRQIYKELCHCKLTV

Molecule: MBP-PELP1^887–966 (from UniProt Q8IZL8 887-966) (domain or fragment)
- stoichiometry N (copies per histone octamer) [1]: 2

Molecule: MBP-PELP1^800–1130 (from UniProt Q8IZL8 800-1130) (domain or fragment)
- stoichiometry N (copies per histone octamer) [1]: 2

B1: recombinant human noncanonical PRC1.4 complex (RING1B-BMI1-RYBP) (complex)
chain 1: MSQAVQTNGTQPLSKTWELSLYELQRTPQEAITDGLEIVVSPRSLHSELMCPICLDMLKNTMTTKECLHRFCADCIITALRSGNKECPTCRKKLVSKRSLRPDPNFDALISKIYPSRDEYEAHQERVLARINKHNNQQALSHSIEEGLKIQAMNRLQRGKKQQIENGSGAEDNGDSSHCSNASTHSNQEAGPSNKRTKTSDDSGLELDNNNAAMAIDPVMDGASEIELVFRPHPTLMEKDDSAQTRYIKTSGNATVDHLSKYLAVRLALEELRSKGESNQMNLDTASEKQYTIYIATASGQFTVLNGSFSLELVSEKYWKVNKPMELYYAPTKEHK
chain 2: MHRTTRIKITELNPHLMCVLCGGYFIDATTIIECLHSFCKTCIVRYLETSKYCPICDVQVHKTRPLLNIRSDKTLQDIVYKLVPGLFKNEMKRRRDFYAAHPSADAANGSNEDRGEVADEDKRIITDDEIISLSIEFFDQNRLDRKVNKDKEKSKEEVNDKRYLRCPAAMTVMHLRKFLRSKMDIPNTFQIDVMYEEEPLKDYYTLMDIAYIYTWRRNGPLPLKYRVRPTCKRMKISHQRDGLTNAGELESDSGSDKANSPAGGIPSTSSCLPSPSTPVQSPHPQFPHISSTMNGTSNSPSGNHQSSFANRPRKSSVNGSSATSSG
chain 3: MTMGDKKSPTRPKRQAKPAADEGFWDCSVCTFRNSAEAFKCSICDVRKGTSTRKPRINSQLVAQQVAQQYATPPPPKKEKKEKVEKQDKEKPEKDKEISPSVTKKNTNKKTKPKSDILKDPPSEANSIQSANATTKTSETNHTSRPRLKNVDRSTAQQLAVTVGNVTVIITDFKEKTRSSSTSSSTVTSSAGSEQQNQSSSGSESTDKGSSRSSTPKGDMSAVNDESF
notes: human RING1B, full length; human BMI1, full length; human RYBP, full length; also called ncPRC1.4; not shown: SUMO-10xHis, N-terminal, cleaved; copies: + +
- binding result [2]: binds

B2: sPELP1 peptide (PELP1 residues Ala764-Glu781) (peptide, UniProt Q8IZL8 764-781, looked up)
peptide: AFVHYDKEEASDVEISLE
notes: also called short (s) PELP1; PELP1^SLiM peptide (764 to 781aa); source: synthetic peptide (GenScript)
- binding result [3]: binds

B3: 6×-HIS-MBP-PELP1 761 to 796aa (SENP3 binding motif peptide) (domain or fragment, human, UniProt Q8IZL8 761-796, looked up)
chain: PRPAFVHYDKEEASDVEISLESDSDDSVVIVPEGLP
notes: human PELP1 IDR, residues 761 to 796 with the SLiM; legends and the purification paragraph print 761 to 796aa; also called MBP-PELP1^SLiM; PELP1^SLiM-containing peptide 761 to 796aa; source: E. coli, purified (His60 Ni resin, S200 gel filtration); not shown: MBP, N-terminal, kept
- binding result [4]: binds
